Key:
purified protein = substrate: O=[N+]([O-])c1ccc(O[C@@H]2O[C@H](CO)[C@@H](O)[C@H](O)[C@H]2O)cc1; assay: purified protein; settings: 50 mM MES pH 5.0, 30°C, 30 min, 0-10 mM substrate
[1] = target: the molecule itself; assay: SEC; size-exclusion chromatography of the purified protein; conditions not given

B1: CIB12, GH1 β-glucosidase from Cuniculiplasma divulgatum S5 (enzyme)
chain: MFPKNFKFGFSEAGFQFEMGVSDIDTNTDWYKWSHDSENIKNHIVSGDRPEEGVGYWDLYPKDHDLAEYIGMNAARIGIEWSRIFPVSTERVTVEVIEENGDILEIKITEKTIKELDLLSDKNAMQHYTNIFNDIKKRGWFLVINLFHWSLPLWINDPSNRNSEKDNALGNCMNRSSVIEFVKYAAYISYYFGSIADRFATMNEPNEVFKTCSEDKRVESYHIRMKWFVEAHARSYDAMKQFTNRQIGVIYANGDVQSFENKDPKLKEEVEYEQRYSFFDALIHGDVHWYVGACRKTNHVHGKSIRPDLSNRIDWIGVNYYSRNVVKRKEDGYENVRGLGYDTGWVSYEKSLDGRSVSETGWEIYPEGIYNIVMSYHKRYELPMMITENGMADDNDRFRPRYLVSHLKNLERAINDGAKVDGYLHWALTDNFEWGSGFSKKFGLIKVDYKTKKRYLRPSALIMKEITKHNGIPEELEWLGEDKF
notes: CIB12, GH1 β-glucosidase of Cuniculiplasma divulgatum S5 (JCM 30642), GenBank SIM59545.1, locus tag CSP5_0942; predicted monomeric mass 56.8 kDa; Cloned into p15TvL with an N-terminal 6His-tag; also called CSP5_0942; source: E. coli BL21(DE3) Lobstr, purified (Ni-NTA)
Q: Which results are given for B1?
A: Km (purified protein): 500 ± 100 µM; Vmax (purified protein): 0.61 µmol/min/mg; kcat (purified protein): 0.57 s⁻¹; stoichiometry N [1]: 2

B2: CIB13, GH1 β-glucosidase from Cuniculiplasma divulgatum S5 (enzyme)
chain: MLPKGFRFGFSLAGFQSEMGLSGKDENSDWYQWCHDEYNIKNGVVSGDFPENGAAYWDLFRKDHETAVNIGMNSTRIGIEWSRIFPTSTEGVKVRIDRDGDNITGITIEKSDLESLKKICNMDAVKKYREIFMDLKDRNFYMILNLFHWSMPLWINDPRKREISKGNNLGNFFSEKSVIEFAKFAAFAAYSFDDLVDVYSTMNEPNVVFSGGNNNSEKKYYSKMKFFIEAHARAYDCIRTISRKRIGVIYANEHIESLENSDPELVEEVTWRNRYSFIDSIKSGKTFSTKNMEENSRWPEKNVFRKDLENRLDWIGVNYYSRYVVRRIESGFEAIDGYGFLCSGYEKSKDGRVVSEMGWEIYPQGLYDVLMGYQERYSLPMMVTENGIADDMDRYRPGFLISHMKMIERAIKDGAGVEGYLHWSLTDNFEWSSGFSKKFGLLRVDYRTKKRSIRPSALVFREISKKSGVPEELEWLGERFY
notes: CIB13, GH1 β-glucosidase of Cuniculiplasma divulgatum S5 (JCM 30642), GenBank SIM79973.1, CSP5_1651; predicted monomeric mass 56.1 kDa; Cloned into p15TvL with an N-terminal 6His-tag; also called CSP5_1651; source: E. coli BL21(DE3) Lobstr, purified (Ni-NTA)
Q: For B2, which Km (purified protein) is on record?
A: 900 ± 100 µM

Q: And the Vmax (purified protein)?
A: 0.93 µmol/min/mg

Q: And the kcat (purified protein)?
A: 0.87 s⁻¹

Q: And the “stoichiometry N” value [1]?
A: 2
